{
  "source": "patent US7871610B2",
  "about": "“Antibodies to Tie1 ectodomain” (Dyax Corp., priority 2003, dated 2011)",
  "key": {"[1]": {"biological_target": "T1, Tie1-EpoR chimeric receptor (UniProt P14753+P35590)", "T1 construct": "the PCR amplified extracellular part of human Tie1 (bp 37-2316 of X60975); expressed in transfected cells", "T1 sequence (P35590+P14753 with tags, fused parts or gaps)": "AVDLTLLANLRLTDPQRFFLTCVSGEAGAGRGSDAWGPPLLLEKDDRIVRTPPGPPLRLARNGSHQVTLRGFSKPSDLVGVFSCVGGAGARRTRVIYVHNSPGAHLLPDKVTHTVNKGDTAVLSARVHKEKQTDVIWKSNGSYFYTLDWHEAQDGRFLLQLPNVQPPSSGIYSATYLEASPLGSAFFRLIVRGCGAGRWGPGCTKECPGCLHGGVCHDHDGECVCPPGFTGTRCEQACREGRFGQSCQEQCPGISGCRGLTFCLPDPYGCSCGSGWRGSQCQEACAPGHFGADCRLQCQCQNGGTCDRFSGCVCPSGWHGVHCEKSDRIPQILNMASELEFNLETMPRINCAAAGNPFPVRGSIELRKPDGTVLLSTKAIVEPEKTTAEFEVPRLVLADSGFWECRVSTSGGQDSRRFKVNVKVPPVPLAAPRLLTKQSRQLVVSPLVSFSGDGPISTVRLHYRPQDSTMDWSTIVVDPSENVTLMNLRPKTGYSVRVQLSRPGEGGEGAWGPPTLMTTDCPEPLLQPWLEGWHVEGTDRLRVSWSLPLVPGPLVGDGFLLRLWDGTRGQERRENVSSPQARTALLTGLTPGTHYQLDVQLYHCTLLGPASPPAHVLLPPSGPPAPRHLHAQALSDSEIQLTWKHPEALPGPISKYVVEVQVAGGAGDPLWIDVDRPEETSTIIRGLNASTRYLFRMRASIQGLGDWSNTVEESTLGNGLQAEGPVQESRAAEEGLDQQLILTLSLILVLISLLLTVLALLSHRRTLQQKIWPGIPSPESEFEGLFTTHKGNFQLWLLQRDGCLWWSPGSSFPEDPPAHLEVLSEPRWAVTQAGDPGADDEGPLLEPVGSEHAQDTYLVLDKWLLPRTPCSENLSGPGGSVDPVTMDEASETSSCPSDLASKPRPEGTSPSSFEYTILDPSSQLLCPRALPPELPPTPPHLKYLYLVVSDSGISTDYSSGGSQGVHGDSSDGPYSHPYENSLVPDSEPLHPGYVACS", "test": "Ba/F3 bioassay (Tie1/EpoR chimeric BaF3 cell assay), MTT viability", "format": "cell-based, human", "details": "for survival/viability of Tie1-EpoR Ba/F3 cells: antibody alone, no IL-3", "method_in_brief": "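Ba/F3 cells expressing human Tie1 extracellular domain fused to mouse EpoR transmembrane/cytoplasmic domains, seeded at 50 000 cells/well with anti-Tie1 antibodies for 48 h. Non-expressing Zeocin-resistant pools served as controls. Survival read by MTT (0.5 mg/ml, 2 h), SDS/HCl lysis overnight at 37 °C, absorbance at 540 nm.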"}, "Tie1": {"biological_target": "Tie1 (Homo sapiens, UniProt P35590)", "sequence (P35590 22-1138)": "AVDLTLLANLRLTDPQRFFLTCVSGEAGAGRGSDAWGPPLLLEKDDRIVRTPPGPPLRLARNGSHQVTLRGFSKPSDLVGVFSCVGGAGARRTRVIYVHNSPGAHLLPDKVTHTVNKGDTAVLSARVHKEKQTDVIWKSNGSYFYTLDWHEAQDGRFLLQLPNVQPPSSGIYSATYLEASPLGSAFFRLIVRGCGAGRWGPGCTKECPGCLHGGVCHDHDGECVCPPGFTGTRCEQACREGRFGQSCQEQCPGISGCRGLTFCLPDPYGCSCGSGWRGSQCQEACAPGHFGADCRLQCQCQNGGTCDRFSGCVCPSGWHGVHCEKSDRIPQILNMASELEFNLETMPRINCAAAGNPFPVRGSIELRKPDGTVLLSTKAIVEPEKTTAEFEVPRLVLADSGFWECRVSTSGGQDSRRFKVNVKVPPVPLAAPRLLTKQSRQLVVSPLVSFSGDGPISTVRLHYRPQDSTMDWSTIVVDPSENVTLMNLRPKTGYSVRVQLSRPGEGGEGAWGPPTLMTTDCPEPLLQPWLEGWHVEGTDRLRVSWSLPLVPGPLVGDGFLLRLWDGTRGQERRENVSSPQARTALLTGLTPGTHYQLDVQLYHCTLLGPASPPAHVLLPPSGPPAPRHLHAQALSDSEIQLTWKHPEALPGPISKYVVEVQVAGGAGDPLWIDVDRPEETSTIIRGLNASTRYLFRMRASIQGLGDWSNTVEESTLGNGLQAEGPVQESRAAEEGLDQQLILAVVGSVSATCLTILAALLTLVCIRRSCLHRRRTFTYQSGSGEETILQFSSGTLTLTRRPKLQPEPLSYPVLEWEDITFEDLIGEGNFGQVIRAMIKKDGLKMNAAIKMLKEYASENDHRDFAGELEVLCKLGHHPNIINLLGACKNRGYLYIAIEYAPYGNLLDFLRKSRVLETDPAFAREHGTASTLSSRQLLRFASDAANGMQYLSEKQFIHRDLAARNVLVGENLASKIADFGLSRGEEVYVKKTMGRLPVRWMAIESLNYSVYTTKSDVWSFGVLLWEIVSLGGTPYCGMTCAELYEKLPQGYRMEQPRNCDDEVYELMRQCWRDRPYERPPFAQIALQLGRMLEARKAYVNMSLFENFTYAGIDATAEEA", "test": "Tie1 phosphorylation assay in HDMVECs", "format": "cell-based", "protocol": "COS1 cells were transfected with pcDNA3-Tie1-V5. After 24 h of transfection, the cells were serum starved for 8 h and then treated with E3 IgG. For the Tie1 phosphorylation assay, HDMVECs were cultured on 10 cm dishes to near confluence, starved (8-16 h) in serum free medium and stimulated as indicated. After the stimulations, the cells were lysed in lysis buffer (RIPA-DOC: 50 mM Tris-HCl pH 8.0, 150 mM NaCl, 1% Triton-X-100, 0.1% SDS, 0.5% DOC, 10 mM EDTA, supplemented with aprotinin, leupeptin, PMSF and sodium vanadate). Clarified lysates from transfected COS1 cells or HDMVECs were immunoprecipitated with anti-V5 or anti-Tie1 B9, respectively. Proteins were separated by SDS-PAGE, transferred to nitrocellulose and immunoblotted using the anti-phosphotyrosine and anti-Tie1 (R&D systems) antibodies.\nTo test if the E3 IgG binding to the extracellular region of Tie1 induces autophosphorylation of Tie1, the Tie1 receptor phosphorylation level in response to E3 IgG treatment was studied in transiently transfected COS1 cells and human primary endothelial cells. COS1 cells were transfected with an expression vector containing a V5-tagged full length Tie1 cDNA, and, after serum starvation, the cells were treated with E3 IgG (200 ng/ml). Cell lysates were extracted at several time points and Tie1 was immunoprecipitated with anti-V5 followed by western blotting using anti-phosphotyrosine and anti-Tie1 antibodies. […] To determine if E3 IgG induces Tie1 phosphorylation in primary endothelial cells, HDMVEC cells were serum starved and stimulated with several concentrations of E3 for 60 min. […] Also higher concentrations of E3 (500-1000 ng/ml) induced Tie1 phosphorylation but the response was more rapid and was most prominent after 5 min of stimulation.\nTo study the kinetics of E3 IgG induced Tie1 activation, cells were stimulated with E3 IgG (200 ng/ml) and receptor phosphorylation was studied at various time points. Tie1 phosphorylation was highest 15-30 min after E3 IgG treatment but phosphorylation persisted for up to 1 h."}},
  "data": [
    {"molecule": "E3: human anti-Tie1 antibody from Fab phage library; HC SEQ ID NO:114, LC SEQ ID NO:116 (antibody, V domains shown, Synthetically generated peptide) VH: EVQLLESGGGLVQPGGSLRLSCAASGFTFSMYGMVWVRQAPGKGLEWVSVISPSGGNTGYADSVKGRFTISRDNSKNTLYLQVNSLRAEDTAVYYCARAPRGYSYGYYYWGQGTLVTVSSASTKGPSVFPLAPSSKSTSGG VL: DIQMTQSPLSLSASVGDRVTITCRASQGIGHYLAWYQQKPGKVPKLLIYTASTLQSGVPSRFSGSGSGTDFTLTINSLQPEDVATYYCQQFNSYPHTFGQGTRLDIK", "values": [
      {"measurement": "concentration giving almost maximal viability in Tie1-EpoR cell survival assays", "setting": "[1]; Tie1-EpoR Ba/F3 cells", "result": 50, "unit": "ng/mL"},
      {"measurement": "Average MTT activity in BaF3 cell assay", "setting": "[1]; Tie1-EpoR Ba/F3 cells, 48 h, absorbance 540 nm, E3 IgG 100 ng/ml together with 100 or 500 ng/ml of the other antibody", "result": 0.61},
      {"measurement": "survival/viability of Tie1-EpoR Ba/F3 cells", "setting": "[1]", "result": "functions as a Tie1 activating antibody"},
      {"measurement": "survival/viability of Tie1-EpoR Ba/F3 cells", "setting": "[1]; listed as E3 IgG", "result": "able to promote survival"},
      {"measurement": "viability of EpoR Ba/F3 cells used as a control", "setting": "[1]; control cells not expressing Tie1-EpoR", "result": "not affected"},
      {"measurement": "persistence of Tie1 phosphorylation", "setting": "Tie1; E3 IgG 200 ng/ml", "result": "up to 1 h"},
      {"measurement": "time of highest Tie1 phosphorylation", "setting": "Tie1; E3 IgG 200 ng/ml", "result": "15 to 30", "unit": "min"},
      {"measurement": "time of most prominent Tie1 phosphorylation", "setting": "Tie1; HDMVEC, E3 500-1000 ng/ml", "result": 5, "unit": "min"},
      {"measurement": "concentration showing Tie1 receptor phosphorylation", "setting": "Tie1; HDMVEC, serum starved, stimulated 60 min", "result": "50 to 200", "unit": "ng/mL"},
      {"measurement": "higher concentrations inducing Tie1 phosphorylation", "setting": "Tie1; HDMVEC, response more rapid", "result": "500 to 1000", "unit": "ng/mL"}
    ]}
  ]
}
